Laboratory results: the Human Domainome abundance scans (Beltran et al. 2025)
± gives the uncertainty stated by the source.

B1: SAM and SH3 domain-containing protein 1, residues 630 to 700; numbered along this chain, O94885 (parent)
chain: GRPPQPKSVEDLLDRINLKEHMPTFLFNGYEDLDTFKLLEEEDLDELNIRDPEHRAVLLTAVELLQEYDSN
B2: Formin-binding protein 4, residues 200 to 261; numbered along this chain, Q8N3X1 (parent)
chain: SGWQYDTQCSLAGVGIEMGDWQEVWDENTGCYYYWNTQTNEVTWELPQYLATQVQGLQHYQP

Variants of: B1
Assay: abundance fitness (aPCA) (normalised: wild type 0, dead -1); higher = more abundant; growth selection in yeast, the domain comes from the species named
Details: Homo sapiens

Abundance fitness of substitutions, site by site:
P3: W -0.132 ± 0.062 | Y 0.005 ± 0.047 | M 0.008 ± 0.049 | D 0.2 ± 0.053 | R -0.302 ± 0.046 | T -0.014 ± 0.041 | A -0.115 ± 0.043 | F 0.044 ± 0.048 | C -0.073 ± 0.052 | V 0.035 ± 0.042 | H -0.094 ± 0.047 | Q -0.118 ± 0.051 | I 0.035 ± 0.047 | E 0.04 ± 0.056 | L -0.036 ± 0.036 | N -0.038 ± 0.049 | K -0.279 ± 0.055
R2: L -0.246 ± 0.054 | A -0.489 ± 0.072 | M -0.442 ± 0.06 | T -0.239 ± 0.048 | W -0.643 ± 0.11 | I -0.011 ± 0.047 | S -0.446 ± 0.056 | Q -0.412 ± 0.076 | G -0.509 ± 0.077 | E -0.634 ± 0.1 | Y -0.317 ± 0.069 | H -0.301 ± 0.085 | D -0.137 ± 0.063 | C -0.971 ± 0.13 | F -0.21 ± 0.066 | P -0.632 ± 0.091 | V -0.472 ± 0.064 | K -0.212 ± 0.05
P6: E -0.481 ± 0.084 | D -0.158 ± 0.058 | T -0.653 ± 0.072 | Y 0.128 ± 0.049 | G -0.655 ± 0.061 | A -0.421 ± 0.056 | W -0.092 ± 0.052 | V -0.168 ± 0.044 | S -0.533 ± 0.049 | L -0.434 ± 0.045 | F 0.085 ± 0.046 | C -0.507 ± 0.071 | I -0.151 ± 0.056 | N -0.792 ± 0.11 | H -0.607 ± 0.085 | M -0.264 ± 0.07 | K -0.63 ± 0.1 | Q -0.726 ± 0.1
P4: I 0.058 ± 0.057 | W -0.008 ± 0.065 | H -0.01 ± 0.054 | M 0.078 ± 0.059 | C -0.088 ± 0.072 | Q 0.159 ± 0.056 | T 0.101 ± 0.046 | Y 0.067 ± 0.049 | S -0.03 ± 0.045 | E 0.237 ± 0.067 | N 0.09 ± 0.05 | D 0.343 ± 0.055 | A 0.046 ± 0.051 | R -0.198 ± 0.057 | F 0.2 ± 0.05
Q5: N -0.113 ± 0.055 | C 0.007 ± 0.064 | Y 0.202 ± 0.049 | S -0.334 ± 0.047 | K -0.258 ± 0.061 | T -0.365 ± 0.057 | M -0.033 ± 0.048 | V -0.149 ± 0.048 | R -0.25 ± 0.049 | I -0.02 ± 0.048 | A -0.291 ± 0.053 | P -0.276 ± 0.055 | E -0.481 ± 0.098 | F 0.068 ± 0.048 | G -0.694 ± 0.093 | L -0.345 ± 0.043 | D -0.783 ± 0.12 | H -0.033 ± 0.055
G1: Y 0.098 ± 0.075 | T 0.016 ± 0.087 | R -0.203 ± 0.07 | E 0.166 ± 0.074 | V -0.049 ± 0.051 | A -0.064 ± 0.055 | M 0.013 ± 0.098 | I 0.047 ± 0.082 | K 0.163 ± 0.096 | C -0.067 ± 0.085 | N 0.17 ± 0.082 | H -0.161 ± 0.12 | P -0.137 ± 0.27 | D 0.195 ± 0.057 | Q 0.109 ± 0.16 | L 0.036 ± 0.066

Variants of: B2
Assay: as above
Details: Homo sapiens

Abundance fitness: each site, then its substitutions
P62: Y -0.161 ± 0.23 | I -0.268 ± 0.21 | G -0.028 ± 0.11 | T -0.009 ± 0.12 | L -0.011 ± 0.14 | S 0.045 ± 0.11 | K 0.194 ± 0.17 | E -0.469 ± 0.42 | F -0.103 ± 0.26 | R -0.29 ± 0.093 | H 0.084 ± 0.32 | V -0.423 ± 0.16 | A 0.124 ± 0.11 | Q -0.237 ± 0.16 | C -0.006 ± 0.2 | M 0.218 ± 0.32
Q61: Y -0.287 ± 0.14 | M -0.16 ± 0.093 | C -0.203 ± 0.1 | L -0.132 ± 0.054 | I -0.299 ± 0.12 | H -0.266 ± 0.12 | T 0.263 ± 0.086 | N -0.108 ± 0.15 | P -0.201 ± 0.1 | K -0.046 ± 0.093 | S -0.083 ± 0.069 | D -0.034 ± 0.1 | A 0.115 ± 0.064 | G -0.018 ± 0.069 | R -0.101 ± 0.065 | W -0.423 ± 0.1 | E 0.065 ± 0.08 | F -0.263 ± 0.1
Y60: A 0.115 ± 0.068 | F 0.124 ± 0.087 | H 0.092 ± 0.099 | L 0.086 ± 0.057 | Q 0.123 ± 0.12 | S 0.066 ± 0.062 | I 0.153 ± 0.092 | C 0.035 ± 0.077 | R 0.112 ± 0.054 | D 0.19 ± 0.1 | M 0.177 ± 0.081 | G 0.103 ± 0.058 | P 0.113 ± 0.09 | E 0.117 ± 0.085 | T 0.101 ± 0.081 | N 0.01 ± 0.13 | K 0.038 ± 0.099 | V 0.099 ± 0.057 | W -0.068 ± 0.081
H59: I 0.045 ± 0.097 | Y -0.296 ± 0.08 | P -0.115 ± 0.077 | M 0.082 ± 0.067 | Q 0.083 ± 0.084 | K 0.188 ± 0.078 | T 0.147 ± 0.07 | G -0.017 ± 0.076 | L -0.083 ± 0.052 | S -0.029 ± 0.06 | N 0.033 ± 0.12 | R -0.125 ± 0.062
